# According to patent US10683329B2, “Dual-site BACE1 inhibitors” (priority 2014, dated 2020):
# *1 amine or outer side, *2 acyl side, *3 side chain or, on linkers, in order; H or OH if unused. Where no end group is shown, it is not given here. [ ]: non-standard residue; d: D form. The star is where a group is joined. Chol‑27‑TFA‑ester = succinamic acid (3S,8S,9S,10R,13R,14S,17R)-17-[(1R,5R)-1,5-dimethyl-6-(2,2,2-trifluoro-acetoxy)-hexyl]-10,13-dimethyl-2,3,4,7,8,9,10,11,12,13,14,15,16,17-tetradecahydro-1H-cyclopenta[a]phenanthren-3-yl ester, C[C@H](CCC[C@@H](C)[C@H]1CC[C@H]2[C@@H]3CC=C4C[C@@H](OC(=O)CCC(=O)*)CC[C@]4(C)[C@H]3CC[C@]12C)COC(=O)C(F)(F)F; MetSta(3S,4S) = CSCC[C@H](N[*:1])[C@@H](O)CC(=O)[*:2]; Sta = CC(C)C[C@H](N)[C@@H](O)CC(=O)O; 27‑OH‑Chol = 27-hydroxycholesterol; PEG4 = NCCOCCOCCOCCOCCC(=O)O; Aun = NCCCCCCCCCCC(=O)O; Ahx = NCCCCCC(=O)O
# B1: Tyr-Pro-Tyr-Phe-Ile-Pro-Leu-Gly-Gly-Gly-Glu-Val-Asn-Leu*Ala-Ala-Glu-DPro-Lys(Chol)-NH2 x TFA (peptide)
# peptide: YPYFIPLGGGEVNLAAE[dP]K(Chol)-NH2
# modifications: also: Leu14*Ala15 Tang hydroxyethylene dipeptide isostere, trifluoroacetate salt
# Molecular target: BACE1 enzyme (UniProt P56817 46-501, limits assumed)
# Sequence (P56817 46-501 limits assumed): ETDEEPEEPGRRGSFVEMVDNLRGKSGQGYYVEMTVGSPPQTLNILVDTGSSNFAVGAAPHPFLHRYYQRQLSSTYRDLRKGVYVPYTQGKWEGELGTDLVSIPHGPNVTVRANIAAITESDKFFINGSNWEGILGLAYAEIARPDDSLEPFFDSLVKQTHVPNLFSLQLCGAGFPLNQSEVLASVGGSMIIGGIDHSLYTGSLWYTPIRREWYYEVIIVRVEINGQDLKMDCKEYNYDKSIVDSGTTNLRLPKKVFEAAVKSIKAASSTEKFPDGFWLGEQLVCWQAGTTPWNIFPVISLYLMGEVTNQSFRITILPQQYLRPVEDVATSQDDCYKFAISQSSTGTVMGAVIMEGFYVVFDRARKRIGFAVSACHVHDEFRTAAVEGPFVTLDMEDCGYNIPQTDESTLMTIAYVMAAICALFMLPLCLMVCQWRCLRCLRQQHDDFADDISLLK
# Test: cell-based or functional assay
row,Binder,"IC50, cellular Aβ-lowering assay (Aβ40 in supernatant of HEK293 cells expressing human APP695) [nM]"
1,YPYFIPL[dK]GGEVN[Sta]VAE[dP]K(Chol)-NH2 (also: x 2TFA salt) [Tyr-Pro-Tyr-Phe-Ile-Pro-Leu-DLys-Gly-Gly-Glu-Val-Asn-Sta-Val-Ala-Glu-DPro-Lys(Chol)-NH2 x 2TFA],0.177
2,YPYFIPL[Ahx]EVN[Sta]VAE[dP]K(Chol)-NH2 (also: TFA salt) [Tyr-Pro-Tyr-Phe-Ile-Pro-Leu-NH(CH2)5CO-Glu-Val-Asn-Sta-Val-Ala-Glu-DPro-Lys(Chol)-NH2 x TFA],0.075
3,YPYFIPLGGGGGGEVN[Sta]VAE[dP]K(Chol)-NH2 (also: TFA salt),0.028
4,YPYFIKL[PEG4]EVN[Sta]VAE[dP]K(Chol)-NH2 (numbers in words are those of the source; also: x 2TFA salt) [Tyr-Pro-Tyr-Phe-Ile-Lys-Leu-PEG(4)-Glu-Val-Asn-Sta-Val-Ala-Glu-DPro-Lys(Chol)-NH2 x 2TFA],0.0228
5,YPYFIPL[PEG4]EVN[Sta]VAE[dP]K(Chol)-NH2 (also: TFA salt) [Tyr-Pro-Tyr-Phe-Ile-Pro-Leu-PEG(4)-Glu-Val-Asn-Sta-Val-Ala-Glu-DPro-Lys(Chol)-NH2 x TFA],0.027
6,YPYFIPLGGGEVN[Sta]VAE[dP]K(27‑OH‑Chol)-NH2 (also: x TFA salt) [Tyr-Pro-Tyr-Phe-Ile-Pro-Leu-Gly-Gly-Gly-Glu-Val-Asn-Sta-Val-Ala-Glu-DPro-Lys(27-OH-Chol)-NH2 x TFA],6.3
7,YPKFIPLG[dK]GEVN[Sta]VAE[dP]K(Chol'ether')-NH2 (also: x 3TFA salt),0.00828
8,YPKFIPLG[dK]GEVN[Sta]VAE[dP]K(Chol)-NH2 (also: x 3TFA salt) [Tyr-Pro-Lys-Phe-Ile-Pro-Leu-Gly-DLys-Gly-Glu-Val-Asn-Sta-Val-Ala-Glu-DPro-Lys(Chol)-NH2 x 3TFA],0.0203
9,YPYFIPLGKGEVN[Sta]VAE[dP]K(Chol)-NH2 (also: 2TFA salt) [Tyr-Pro-Tyr-Phe-Ile-Pro-Leu-Gly-Lys-Gly-Glu-Val-Asn-Sta-Val-Ala-Glu-DPro-Lys(Chol)-NH2 x 2TFA],0.0295
10,YPYFIPLKGGEVN[Sta]VAE[dP]K(Chol)-NH2 (also: 2TFA salt) [Tyr-Pro-Tyr-Phe-Ile-Pro-Leu-Lys-Gly-Gly-Glu-Val-Asn-Sta-Val-Ala-Glu-DPro-Lys(Chol)-NH2 x 2TFA],0.0235
11,YKYFIPLG[dK]GEVN[Sta]VAE[dP]K(Chol'ester')-NH2 (also: x 3TFA salt),0.25
12,"YPYFIPLGGGEVN[MetSta(3S,4S)]VAE[dF]K(C14)-NH2 (also: x TFA salt) [Tyr-Pro-Tyr-Phe-Ile-Pro-Leu-Gly-Gly-Gly-Glu-Val-Asn-MetSta-Val-Ala-Glu-DPhe-Lys(C14)-NH2 x TFA]",1260
13,YPYFIPL[Aun]EVN[Sta]VAE[dP]K(Chol)-NH2 (also: TFA salt) [Tyr-Pro-Tyr-Phe-Ile-Pro-Leu-NH(CH2)10CO-Glu-Val-Asn-Sta-Val-Ala-Glu-DPro-Lys(Chol)-NH2 x TFA],0.36
14,YPYFIPLGGGEVN[Sta]VAE[dP]K(Chol‑27‑TFA‑ester)-NH2 (also: x TFA salt),5.2
15,YPYFIPLGGGEVN[Sta]VAE[dP]K(Chol)-NH2 (also: x TFA salt) [Tyr-Pro-Tyr-Phe-Ile-Pro-Leu-Gly-Gly-Gly-Glu-Val-Asn-Sta-Val-Ala-Glu-DPro-Lys(Chol)-NH2 x TFA],0.027
16,Ac-YPYFIPL[PEG4]EVN[Sta]VAE[dP]K(Chol)-NH2 [Ac-Tyr-Pro-Tyr-Phe-Ile-Pro-Leu-PEG(4)-Glu-Val-Asn-Sta-Val-Ala-Glu-DPro-Lys(Chol)-NH2],0.041
17,B1,0.0024
18,YPYFKPLG[dK]GEVN[Sta]VAE[dP]K(Chol)-NH2 (also: 3TFA salt) [Tyr-Pro-Tyr-Phe-Lys-Pro-Leu-Gly-DLys-Gly-Glu-Val-Asn-Sta-Val-Ala-Glu-DPro-Lys(Chol)-NH2 x 3TFA],0.0263
19,YPYFIPLG[dK]GEVN[Sta]VAE[dP]K(Chol'ester')-NH2 (also: x 2TFA salt),0.025
20,YPYFKPLGGGEVN[Sta]VAE[dP]K(Chol)-NH2 (also: 2TFA salt) [Tyr-Pro-Tyr-Phe-Lys-Pro-Leu-Gly-Gly-Gly-Glu-Val-Asn-Sta-Val-Ala-Glu-DPro-Lys(Chol)-NH2 x 2TFA],0.00732
21,KPYFIPLG[dK]GEVN[Sta]VAE[dP]K(Chol'ester')-NH2 (also: x 3TFA salt),0.02
